Data taken from US20240216271A1, “HYDROLYTICALLY DEGRADABLE HYDROGELS AND USES THEREOF” (GEORGIA TECH RESEARCH CORPORATION, priority 2021, published 2024).

Test system: primary monocytes derived from the bone marrow of C57BL/6J mice
Experiment: Bone marrow derived macrophage co-culture with microgels (flow cytometry)
Format: cell-based
Conditions: 48 hr of co-culture
Text: To assess the effects of microgels on immune cell polarization in vitro, a co-culture system was setup involving primary monocytes derived from the bone marrow of C57BL/6J mice with different formulations of crosslinked microgels. […] In addition, the overall expression of these markers was equivalent after 4 days of co-culture (FIGS. 11A-D).
Bone Marrow Derived Macrophage Co-culture: Bone marrow was isolated from the femurs and tibias of 6-week-old male C57BL/6J mice. Bones were cleaned of soft tissue, one side was cut to expose the marrow, and they were inverted in a 200 μL pipet tip cut to fit in a 1.5 mL Eppendorf tube. The bones were then centrifuged at 10,000×g for 15 sec to pellet the marrow in the bottom of the Eppendorf tube. Bones were discarded and cells were then resuspended in RBC Lysis Buffer (Biolegend 420302) to remove red blood cells. Cells were then washed in MACS buffer (DPBS pH 7.2, 0.5% BSA, 2 mM EDTA) and monocytes were isolated using the Monocyte Isolation Kit (BM), mouse (Miltenyi Biotec 130-100-629) and LS columns (Miltenyi Biotec 130-042-401).
Monocytes were cultured in RPMI 1640 media (Gibco 11875-085) supplemented with 10% heat-inactivated fetal bovine serum, 1% pen/strep, and 20 ng/mL murine M-CSF (Biolegend 574804) for 6 days in low-adherent plates. […] Samples were analyzed on a FACS-AriaIIIu flow cytometer (BD Biosciences).

**Q.** “IL-4: murine IL-4, 20 ng/ml; IL-4-polarized M2 positive control” was tested. Which “cell viability / cell survival” value did it give?
**A.** Its value is “increase in cell numbers”.
